In patent US20200289416:

Target: T1, MMP-Ac2-26 PA (C16V2A2E2-GGGPQGIWGQGK-AMVSEFLKQAWFIENEEQEYVQTVK-NH2)
T1 chain: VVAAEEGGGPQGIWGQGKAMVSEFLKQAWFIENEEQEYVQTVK

B1: human recombinant MMP2 (protein)
chain: YNFFPRKPKWDKNQITYRIIGYTPDLDPETVDDAFARAFQVWSDVTPLRFSRIHDGEADIMINFGRWEHGDGYPFDGKDGLLAHAFAPGTGVGGDSHFDDDELWTLGEGQVVRVKYGNADGEYCKFPFLFNGKEYNSCTDTGRSDGFLWCSTTYNFEKDGKYGFCPHEALFTMGGNAEGQPCKFPFRFQGTSYDSCTTEGRTDGYRWCGTTEDYDRDKKYGFCPETAMSTVGGNSEGAPCVFPFTFLGNKYESCTSAGRSDGKMWCATTANYDDDRKWGFCPDQGYSLFLVAAHEFGHAMGLEHSQDPGALMAPIYTYTKNFRLSQDDIKGIQELYGASPDIDLGTGPTPTLGPVTPEICKQDIVFDGIAQIRGEIFFFKDRFIWRTVTPRDKPMGPLLVATFWPELPEKIDAVYEAPQEEKAVFFAGNEYWIYSASTLERGYPKPLTSLGLPPDVQRVDAAFNWSKNKKTYIFAGDKFWRYNEVKKKMDPGFPKLIADAWNAIPDNLDAVVDLQGGGHSYFFKGAYYLKLENQSLKSVKFGSIKSDWLGC
Q: B1 was tested. Which “Ac2-26 release from PA nanofibers (cleavage assay, LC-MS)” value did it give?
A: Its value is “The MMP-Ac2-26 PA nanofibers released Ac2-26 after 24 hours of treatment with 40 nM MMP2”.
